Experimental data: patent US8012929B2, “Peptides directed for diagnosis and treatment of amyloid-associated diseases” (Tel Aviv University Future Technology Development L.P., priority 2002, dated 2011)
Square brackets hold non-standard residues; d marks the D form. Ends that are not written are not given here. Aib = CC(C)(N)C(=O)O

Legend:
[1] = biological target: T1, hIAPP1-37 (Homo sapiens, UniProt P10997); experiment: Thioflavin T fluorescence assay of hIAPP fibrillization (sodium acetate buffer); type: biochemical; details: 4 μM hIAPP1-37, 40 μM inhibitor, 10 mM sodium acetate pH 6.5
T1 construct: purchased CalBiochem (La Jolla Calif., USA)
T1 sequence (P10997 34-70 limits assumed): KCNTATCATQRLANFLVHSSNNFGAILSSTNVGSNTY
Description: Thioflavin T fluorescence assay—hIAPP fibrillization was monitored by Thioflavin T dye binding assay. hIAPP1-37 stock solution was diluted to a final concentration of 4 μM in 10 mM sodium acetate buffer (pH 6.5) with or without inhibitors (40 μM), and a final concentration of HFIP of 1% (vol). Immediately after dilution, sample was centrifuged for 20 minutes in 20,000×g at 4° C. and the supernatant fraction was used for fluorescence measurements. In every measurement ThT was added to a 1 ml sample at a final concentration of 3 μM and measurements were effected by using Perkin-Elmer (excitation 450 nm, 2.5 nm slit; emission 480 nm 10 nm slit). Background was subtracted from all samples.

[2] = biological target: T2, MBP-IAPP1-37 (Homo sapiens, UniProt P10997); experiment: Binding of MBP-IAPP to membrane-spotted peptide arrays; details: membrane-bound hIAPP decamers, 10 μg/ml MBP-IAPP1-37, densitometry, semiquantitative
T2 construct: incubated in the presence of 10 μg/ml MBP-IAPP1-37 at 4° C. for 12 h; made in house; host or cells: E. coli BL21(DE3)
T2 sequence (P10997 34-70 limits assumed): T1 sequence (P10997 34-70 limits assumed)
From the text: IAPP peptide array construction—Decamers corresponding to consecutive overlapping sequences of hIAPP1-37 SEQ ID NOs. 61-88) were synthesizes on a cellulose membrane matrix using the SPOT technique (Jerini AG, Berlin, Germany). The peptides were covalently bound to a Whatman 50 cellulose support (Whatman, Maidstone, England) via the C-terminal amino-acids. N-terminal acetylation was used for peptide scanning because of higher stability to peptide degradation, and better representation of the native recognition motif.
Thereafter, cellulose membrane was incubated in the presence of 10 μg/ml MBP-IAPP1-37 at 4° C. for 12 h in the same blocking buffer. The cellulose membrane was then washed repeatedly with 0.05% Tween 20 in TBS. […] HRP-conjugated goat anti mouse antibodies (Jackson Laboratories, USA) were used as a secondary antibody. Immunoblots were developed using the Renaissance western blot Chemiluminescence Reagent (NEN, USA) according to Manufacturer's instructions and signal was quantified using densitometry. Regeneration of the cellulose membrane for reuse was carried out by sequential washing with Regeneration buffer I including 62.5 mM Tris, 2% SDS, 100 Mm 2-mercaptoethanol, pH 6.7, and Regeneration buffer II including 8 M urea, 1% SDS, 0.1% 2-mercaptoethanol. Efficiency of the washing steps was monitored by contacting the membrane with the chemiluminescence reagent, as described.
To determine the specific role of the phenylalanine residue in IAPP-self assembly, a membrane-based binding assay was preformed in order to systematically explore the molecular determinants that facilitate the ability of the full-length hIAPP to recognize the “basic amyloidogenic unit”. To this end, the ability of MBP-IAPP (see Example 6) to interact with an array of peptides in which the phenylalanine position was systematically altered (SEQ ID NOs. 91-110), was addressed.

[3] = biological target: T3, full-length IAPP polypeptide (Homo sapiens, UniProt P10997); experiment: ThT fluorescence assay of IAPP fibril formation with inhibitory peptides (Tris buffer); type: biochemical; details: for inhibition of IAPP aggregation (ThT endpoint): 4 μM IAPP, 40 μM inhibitory peptide, 142 hours of incubation
T3 construct: purchased CalBiochem (La Jolla Calif., USA)
T3 sequence (P10997 34-70 limits assumed): T1 sequence (P10997 34-70 limits assumed)
Description: The ability of amyloidogenic peptides of IAPP, identified according to the teachings of the present invention to inhibit amyloid formation by the full-length polypeptide was tested by the addition of beta-breaker proline residues to the recognition sequence as set forth in the peptide sequence NFLVHPP (SEQ ID NO: 45). The degree of amyloid fibrils formation with and without the inhibitor was assessed using Thioflavin T (ThT) as molecular indicator. The degree of fluorescence of the ThT dye is directly correlated with the amount of amyloid fibrils in the solution [LeVine H 3rd. (1993) Protein Sci. 2:404-410. IAPP solutions ([…] hIAPPin 10 mM Tris buffer pH 7.2), were incubated in the presence or absence of 40[…] of the modified peptide (i.e., NFLVHPP) at room temperature. Fibril formation was determined by a ten fold dilution of the solutions into a solution that contained 3[…] thioflavin T (ThT) in 50 mM sodium phosphate pH 6.0 and determination of fluorescence at 480 nm with excitation at 450 nm using a LS50B spectroflurimeter (Perkin Elmar, Wellesley, Mass.). As a control 10 mM Tris buffer pH 7.2 were diluted into the ThT solution and fluorescence was determined as described.
The degree of amyloid fibril formation with and without the Aib inhibitor was assessed using thioflavin T (ThT) as molecular indicator. The degree of fluorescence of the ThT dye is directly correlated with the amount of amyloid fibrils in the solution [LeVine H 3rd. (1993) Protein Sci. 2:404-410].
[…]IAPP solutions (4 μM peptide in 10 mM Tris buffer pH 7.2), were incubated with or without 40 μM of the various peptide solutions at room temperature. Fibril formation was assessed by a ten fold diluation of the solutions into a solution which contained 3 μM thioflavin T (ThT) in 50 mM sodium phosphate pH 6.0 and determination of fluorescence at 480 nm with excitation at 450 nm using a Perkin Elmar LS50B spectroflurimeter. As a control a 10 mM Tris buffer pH 7.2 was diluted into the ThT solution and fluorescence was determined as described. […]

inhibition of IAPP fibrillization (ThT fluorescence at plateau) [1] | binding to MBP-hIAPP1-37 [2] | Substance | other results
effective inhibition | – | D-Tyr-Aib [EG16] | inhibition of IAPP aggregation (ThT endpoint) [3]: significant inhibitory effect on IAPP aggregation
inhibition potential | – | D-Pro-Aib [EG28] | –
inhibition potential | – | D-Phe-D-Pro [EG29] | –

Further lines, the substance ahead of its results:

Substance | inhibition of IAPP fibrillization (ThT fluorescence at plateau) [1] | binding to MBP-hIAPP1-37 [2] | other results
Gln-Lys-Leu-Val-Phe-Phe [EG05, reference compound] | effective inhibition of IAPP fibrillization | – | –
hIAPP3-12: membrane-spotted decamer of hIAPP residues 3-12 (NTATCATQRL) | – | no binding | –
hIAPP1-10: membrane-spotted decamer of hIAPP residues 1-10 (KCNTATCATQ) | – | no binding | –
NFLVHPP | – | – | ThT fluorescence of IAPP in the presence of the inhibitory peptide ([3]; hIAPP in 10 mM Tris pH 7.2 with or without modified peptide, room temperature): significant increase in fluorescence
hIAPP2-11: membrane-spotted decamer of hIAPP residues 2-11 (CNTATCATQR) | – | third binding spot | –
Aib-Phe-Phe ([Aib]-Phe-Phe) [EG12] | – | – | inhibition of IAPP aggregation (ThT endpoint) [3]: best inhibitor
